Assay results as given in patent US20120276119A1 (IMMUNOGEN, published 2012).

B1: huCD37-50 (antibody, human IgG1, kappa, V domains shown)
VH: QVQLQESGPGLLKPSQSLSLTCTVSGYSITSGFAWHWIRQHPGNKLEWMGYILYSGSTVYSPSLKSRISITRDTSKNHFFLQLNSVTAADTATYYCARGYYGYGAWFAYWGQGTLVTVSA
VL: EIVLTQSPATMSASPGERVTMTCSATSSVTYMHWYQQKPGQSPKRWIYDTSNLPYGVPARFSGSGSGTSYSLTISSMEAEDAATYYCQQWSDNPPTFGQGTKLEIKR
B2: huCD37-50-SMCC-DM1 (antibody, human IgG1, kappa, V domains shown)
VH: B1 VH
VL: B1 VL
modifications: DM1 maytansinoid linked via SMCC; sites, chain and drug load in the assay not stated
B3: anti-muCD37 monoclonal antibody clone 252-3 (antibody, mouse IgG2a, V domains shown)
VH: EVQVVESGGDLVKPGGSLKLSCAASGFTFSSYGMSWVRQTPDKRLEWVATISSGGSYTYSPDSVKGRFTISRDNAKKTLYLQMSSLKSEDTAMYYCARHSYYDTSVDYWGQGTSVTVSS
VL: DIQMTQTTSSLSASLGDRVTISCRASQDISNYLNWYQQKPDGTVKLLIYYTSKLHSGVPSRFSGSGSGTDYSLTISNLEQEDIATYFCQQGNALPWTFGGGTKLELKR
B4: huCD37-3 (antibody, V domains shown)
VH: QVQVQESGPGLVAPSQTLSITCTVSGFSLTTSGVSWVRQPPGKGLEWLGVIWGDGSTNYHPSLKSRLSIKKDHSKSQVFLKLNSLTAADTATYYCAKGGYSLAHWGQGTLVTVSS
VL: DIQMTQSPSSLSVSVGERVTITCRASENIRSNLAWYQQKPGKSPKLLVNVATNLADGVPSRFSGSGSGTDYSLKINSLQPEDFGTYYCQHYWGTTWTFGQGTKLEIKR
B5: huCD37-3-SMCC-DM1 (antibody, V domains shown)
VH: B4 VH
VL: B4 VL
modifications: DM1 maytansinoid linked via SMCC; sites, chain and drug load in the assay not stated

Assays:
Human CD37 [1] = biological target: T1, Human CD37 (human, UniProt P11049 1-278); experiment: cell-based or functional assay
T1 sequence: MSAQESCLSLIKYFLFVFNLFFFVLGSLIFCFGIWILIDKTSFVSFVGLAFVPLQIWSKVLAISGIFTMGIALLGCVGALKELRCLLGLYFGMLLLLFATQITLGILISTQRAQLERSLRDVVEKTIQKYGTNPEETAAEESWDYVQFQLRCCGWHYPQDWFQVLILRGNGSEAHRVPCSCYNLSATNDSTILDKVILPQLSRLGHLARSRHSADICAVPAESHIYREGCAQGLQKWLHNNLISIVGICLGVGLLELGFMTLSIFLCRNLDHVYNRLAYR

Murine CD37 = biological target: T2, Murine CD37 (murine, UniProt Q61470 1-281); experiment: flow cytometry titration on 300-19 murine pre-B cells expressing muCD37; anti-muIgG-PE detection; EC50 of the curve taken as the apparent Kd
T2 construct: Endogenous muCD37 on 300-19 murine pre-B cells and on wild type mouse spleen B cells; also called muCD37
T2 sequence: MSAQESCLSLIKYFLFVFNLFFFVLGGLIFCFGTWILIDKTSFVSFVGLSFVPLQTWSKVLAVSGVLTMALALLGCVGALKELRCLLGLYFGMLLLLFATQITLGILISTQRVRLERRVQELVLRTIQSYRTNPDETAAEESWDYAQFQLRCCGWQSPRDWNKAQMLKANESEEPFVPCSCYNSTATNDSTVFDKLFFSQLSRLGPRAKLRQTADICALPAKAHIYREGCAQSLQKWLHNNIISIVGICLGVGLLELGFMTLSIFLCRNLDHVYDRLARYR
Protocol: Cells were then washed and counterstained with anti muIgG-PE conjugate (Jackson Immunoresearch, West Grove, Pa.) for 30 minutes at 4° C. The cells were finally washed, fixed in formalin and analyzed by flow cytometry using a FACSarray (BD Bioscience, San Jose, Calif.). The flow cytometry data were analyzed using FlowJo (Tree Star Inc., Ashland, Oreg.) and the geometric mean fluorescence intensity was plotted against the antibody concentration in a semi-log plot (FIG. 8). A dose-response curve was generated by non-linear regression and the EC50 value of the curve, which corresponds to the apparent dissociation constant (Kd) of the antibody, was calculated using GraphPad Prism (GraphPad Software Inc., La Jolla, Calif.).

Human CD37 [2] = biological target: T1, Human CD37; experiment: flow cytometry on human tumor cells expressing human CD37

Binder | in vitro depletion of B-cells, whole human blood, 10 µg/mL, one donor (Human CD37 [1]) [%] | Kd (Murine CD37) [nM] | binding result (Human CD37 [2]) | EC50 of in vitro B-cell depletion, purified human PBMCs, two donors (Human CD37 [1]) [µg/mL]
B1 | ~40 | – | – | –
B2 | ~40 | – | – | –
B3 | – | 14 | no binding | –
B4 | ~40 | – | – | –
B5 | ~40 | – | – | 0.04 to 0.075
